How the values were obtained:
CD28 [1] = biological target: T1, CD28 (Homo sapiens, UniProt P10747); assay: Flow binding to Jurkat/IL2 reporter cells (CD28); design: host or cells: Jurkat cells expressing an IL-2-luciferase reporter; details: 33.3 nM; for CD28 MFI at 33.3 nM: Jurkats (CD28)
How it was run: (§1)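 Fusion proteins bound to CHO cells stably expressing CTLA4 or PD-L1, or to Jurkat/IL2 reporter cells with endogenous CD28, for 45 min on ice after blocking in PBS/1% BSA. Detection with PE anti-human Fc by flow cytometry; PE MFI per cell type and binding EC50 determined.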

huCTLA4 = huCTLA4 (Homo sapiens, UniProt P16410); assay: Flow binding to CHO cells stably expressing CTLA4; design: huCTLA4 and huPD-L1, full-length mammalian surface expression constructs were generated; expressed in transfected cells; host or cells: CHO cells, lentiviral transduction, sorted to >98% purity; details: 33.3 nM; for CTLA4 MFI at 33.3 nM: CHO cells stably expressing CTLA4
How it was run: as §1

huPD-L1 = huPD-L1 (Homo sapiens, UniProt Q9NZQ7); assay: Flow binding to CHO cells stably expressing PD-L1; design: huCTLA4 and huPD-L1, full-length mammalian surface expression constructs were generated; expressed in transfected cells; host or cells: CHO cells, lentiviral transduction, sorted to >98% purity; details: Table E10
How it was run: as §1

CD28 [2] = biological target: T1, CD28; assay: Jurkat/IL2 + CHO/OKT3 +/- PD-L1 reporter assay: PD-L1-dependent CD28 costimulation; format: cell-based; design: host or cells: Jurkat cells expressing an IL-2-luciferase reporter; details: Jurkat/IL2 + CHO/OKT3/PD-L1
How it was run: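 Jurkat reporter cells (100,000/well) preincubated 15 min at room temperature with test protein, then cocultured 5 h at 37 °C with CHO aAPCs bearing anti-CD3 scFv (OKT3) with or without PD-L1. Luciferase luminescence (RLU) read after lysis-substrate addition.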

[3] = Table E10, relative to CD80 WT IgV-Fc

huPD-L1, sequence (Q9NZQ7 19-290): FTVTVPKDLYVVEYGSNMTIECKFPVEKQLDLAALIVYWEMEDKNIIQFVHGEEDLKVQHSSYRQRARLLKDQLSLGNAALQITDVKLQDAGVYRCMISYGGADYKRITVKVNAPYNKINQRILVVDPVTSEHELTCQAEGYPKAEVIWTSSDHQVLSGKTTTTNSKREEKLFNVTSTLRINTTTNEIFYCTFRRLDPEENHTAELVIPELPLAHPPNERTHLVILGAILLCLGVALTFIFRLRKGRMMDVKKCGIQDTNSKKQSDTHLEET
huCTLA4, sequence (P16410 36-223): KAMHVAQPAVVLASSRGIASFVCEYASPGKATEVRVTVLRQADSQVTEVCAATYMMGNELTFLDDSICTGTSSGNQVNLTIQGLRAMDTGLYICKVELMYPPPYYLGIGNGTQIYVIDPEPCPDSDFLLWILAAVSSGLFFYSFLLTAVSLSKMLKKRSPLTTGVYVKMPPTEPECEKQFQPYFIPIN

B1: M47I/A71G (protein)
chain: VIHVTKEVKEVATLSCGHNVSVEELAQTRIYWQKEKKMVLTMMSGDINIWPEYKNRTIFDITNNLSIVILGLRPSDEGTYECVVLKYEKDAFKREHLAEVTLSVKAD
**Q.** What does the source list for B1?
**A.** CD28 MFI at 33.3 nM (CD28 [1]; Table E10): 823; CD28 Fold change to WT CD80 (CD28 [1]; [3]): 12.5; CTLA4 MFI at 33.3 nM (huCTLA4; Table E10): 27768; CTLA4 Fold change to WT CD80 (huCTLA4; [3]): 14.5; PD-L1 MFI at 33.3 nM (huPD-L1; 33.3 nM, CHO cells stably expressing PD-L1): 5097; PD-L1 Fold change to WT CD80 (huPD-L1; 33.3 nM, relative to CD80 WT IgV-Fc): 72.5; Ratio of PDL1:CD28 (huPD-L1; binding to PD-L1 compared to binding to CD28): 6; Fold Increase over WT CD80-IgV-Fe (CD28 [2]; Table E12, 5.0 nM): 4.4; Relative Luciferase Units (RLU), CD80 Cone 5.0 nM (CD28 [2]; Table E12, 5.0 nM): 1762 RLU

B2: H18Y/A26E/A71G/D90G (protein)
chain: VIHVTKEVKEVATLSCGYNVSVEELEQTRIYWQKEKKMVLTMMSGDMNIWPEYKNRTIFDITNNLSIVILGLRPSDEGTYECVVLKYEKGAFKREHLAEVTLSVKAD
**Q.** Which “CD28 MFI at 33.3 nM” value (CD28 [1]; Table E20) does the source give for B2 here?
**A.** Its value is 2001.

**Q.** And the “CTLA4 MFI at 33.3 nM” value (huCTLA4; Table E20)?
**A.** The value was 19878.

**Q.** And the “Relative Luciferase Units (RLU), CD80 Conc 5.0 nM” value (CD28 [2]; Table E22)?
**A.** The value was 933 RLU.

B3: E35D/V68M/A71G/D90G (protein)
chain: VIHVTKEVKEVATLSCGHNVSVEELAQTRIYWQKDKKMVLTMMSGDMNIWPEYKNRTIFDITNNLSIMILGLRPSDEGTYECVVLKYEKGAFKREHLAEVTLSVKAD
**Q.** For B3, which “CD28 MFI at 33.3 nM” value (CD28 [1]; Table E20) is on record?
**A.** The value was 2843.

**Q.** What about the “CTLA4 MFI at 33.3 nM” value (huCTLA4; Table E20) of the same molecule?
**A.** The value was 23290.

**Q.** What about the “Relative Luciferase Units (RLU), CD80 Conc 5.0 nM” value (CD28 [2]; Table E22) of the same molecule?
**A.** The value was 990 RLU.

B4: M47V/V68M/K89N (protein)
chain: VIHVTKEVKEVATLSCGHNVSVEELAQTRIYWQKEKKMVLTMMSGDVNIWPEYKNRTIFDITNNLSIMILALRPSDEGTYECVVLKYENDAFKREHLAEVTLSVKAD
**Q.** Which results are given for B4?
**A.** CD28 MFI at 33.3 nM (CD28 [1]; Table E19): 1324; CTLA4 MFI at 33.3 nM (huCTLA4; Table E19): 24787; Relative Luciferase Units (RLU), CD80 Conc 5.0 nM (CD28 [2]; Table E21): 862 RLU

B5: E35D/N48K/V68M (protein)
chain: VIHVTKEVKEVATLSCGHNVSVEELAQTRIYWQKDKKMVLTMMSGDMKIWPEYKNRTIFDITNNLSIMILALRPSDEGTYECVVLKYEKDAFKREHLAEVTLSVKAD
**Q.** For B5, which “CD28 MFI at 33.3 nM” value (CD28 [1]; Table E19) is on record?
**A.** The value was 642.

**Q.** And the “CTLA4 MFI at 33.3 nM” value (huCTLA4; Table E19)?
**A.** Its value is 33583.

**Q.** What about the “Relative Luciferase Units (RLU), CD80 Conc 5.0 nM” value (CD28 [2]; Table E21) of the same molecule?
**A.** The value was 721 RLU.

B6: E35D/M47V/K89N (protein)
chain: VIHVTKEVKEVATLSCGHNVSVEELAQTRIYWQKDKKMVLTMMSGDVNIWPEYKNRTIFDITNNLSIVILALRPSDEGTYECVVLKYENDAFKREHLAEVTLSVKAD
**Q.** For B6, which “CD28 MFI at 33.3 nM” value (CD28 [1]; Table E19) is on record?
**A.** Its value is 507.

**Q.** And the “CTLA4 MFI at 33.3 nM” value (huCTLA4; Table E19)?
**A.** The value was 39282.

**Q.** And the “Relative Luciferase Units (RLU), CD80 Conc 5.0 nM” value (CD28 [2]; Table E21)?
**A.** The value was 668 RLU.

B7: V22D/E24D/E35D/M47V/V68M (protein)
chain: VIHVTKEVKEVATLSCGHNVSDEDLAQTRIYWQKDKKMVLTMMSGDVNIWPEYKNRTIFDITNNLSIMILALRPSDEGTYECVVLKYEKDAFKREHLAEVTLSVKADFPTPSISDFETPTSNIRRIICSTSGGFPEPHLSWLENGEELNAINTTVSQDPETELYAVSSKLDFNMTTNHSFMCLIKYGHLRVNQTFNWNTTKQEHFPDN
modifications: CD80 v385 ECD
**Q.** For B7, which “CD28 MFI at 33.3 nM” value (CD28 [1]; Table E11) is on record?
**A.** The value was 191.

**Q.** And the “CTLA4 MFI at 33.3 nM” value (huCTLA4; Table E11)?
**A.** Its value is 16899.

**Q.** And the “Relative Luciferase Units (RLU), CD80 Cone 5.0 nM” value (CD28 [2]; Table E13, 5.0 nM)?
**A.** The value was 1023 RLU.

Source: patent US20220177587A1, “METHODS AND USES OF VARIANT CD80 FUSION PROTEINS AND RELATED CONSTRUCTS” (Alpine Immune Sciences, Inc., priority 2018, published 2022)
